We go through nine compounds from patent US12723279B2, “Long stokes shift chromenoquinoline dyes and uses in sequencing applications” (priority 2020, dated 2026).

Format in all cases: physicochemical
The nature of data set [1]: Fluorescence emission of chromenoquinoline dye labeled ffA nucleotides. How it is done:
(§1) The chromenoquinoline dye of Formula (I) (0.020 mmol) was coevaporated with 2×2 mL of anhydrous N,N′-dimethylformamide (DMF), then dissolved in 2 mL of anhydrous N,N′-dimethylacetamide (DMA). N,N-diisopropylethylamine (28.4 μL, 0.163 mmol) was added, followed by N,N,N′,N′-tetramethyl-O—(N-succinimidyl)uronium tetrafluoroborate as 0.1 M solution in anhydrous DMA (TSTU, 232 μL, 0.023 mmol). The reaction was stirred under nitrogen at RT for 30 minutes. In the meantime, an aqueous solution of the 2′-deoxyadenosine triphosphates-linker (0.01 mmol) was evaporated to dryness under reduced pressure and resuspended in 200 μL, of 0.1 M triethylammonium bicarbonate (TEAB) solution in water. The activated chromenoquinoline dye solution was added to the triphosphate and the reaction was stirred at RT for 18 hours. The crude product was purified firstly by ion-exchange chromatography on DEAE-Sephadex A25 (25 g). The fractions containing the triphosphate were pooled and the solvent was evaporated to dryness under reduced pressure. The crude material was further purified by preparative scale RP-HPLC using a YMC-Pack-Pro C18 column. The final compound was characterized by LC-MS, analytical RP-HPLC and UV-Vis spectroscopy.
(§2) In this example, the spectral properties of several fully functionalized A nucleotides (ffAs) conjugated with the chromenoquinoline dyes described herein were characterized. FIG. 1 illustrates the […] of ffA nucleotides conjugated with chromenoquinoline dyes I-1 through I-6 and I-8 as a 2 μM solution in Universal Scan Mix (USM, 1 M Tris pH 7.5, 0.05% TWEEN, 20 mM sodium ascorbate, 10 mM ethyl gallate). FIGS. 2A-2D show the fluorescence emission spectra of ffA nucleotide conjugated with chromenoquinoline dyes I-1 through I-6 and I-8 acquired using either 450 nm or 520 nm as excitation wavelengths in USM. The spectra were acquired on an Agilent Cary 100 UV-Vis Spectrophotometer and on a Cary Eclipse Fluorescence Spectrophotometer, using quartz or plastic cuvettes. It was observed that the chromenoquinoline dyes described herein can be excited under both blue and green light sources and also have strong fluorescent emission.

Data set [2] in a line: UV-Vis absorption of chromenoquinoline dye labeled ffA nucleotides. How it is done:
as §1, §2

The nature of data set [3]: Stability of dye labeled ffAs in aqueous solution at high pH (ethanolamine and glycine buffers, 45° C.). As to conditions: 10 μM, dark, vs ffC labeled with coumarin reference dye A. How it is done: The stability of the compounds ffA-sPA-I-3 and ffA-sPA-I-4 in an aqueous solution at high pH was assessed by incubating a 10 μM solution of the given compound in two buffers: 1) 50 mM ethanolamine buffer, pH 9.6, 50 mM NaCl, 1 mM EDTA, 0.02% CHAPS, 4 mM MgSO4; 2) 50 mM glycine buffer, pH 9.8, 50 mM NaCl, 1 mM EDTA, 0.2% CHAPS, 4 mM MgSO4 at 45° C. in the dark for 6 days. At set time points, the UV-VIS absorption and fluorescence emission of the solutions were measured on an Agilent Cary 100 UV-Vis Spectrophotometer and on a Cary Eclipse Fluorescence Spectrophotometer, using quartz cuvettes. In addition, aliquots of the solutions were taken and analyzed by analytical HPLC. […] The coumarin reference dye A is disclosed in U.S. Publication No. 2018/0094140, having the structure moiety

Where [4] appears, read: 50 mM ethanolamine buffer pH 9.6, 45° C., 6 days (FIG. 3A).
Setting [5] is: 50 mM glycine buffer pH 9.8, 45° C., 6 days (FIG. 3B).

Turning to `COc1cc2cc3c([n+](C)c2cc1OC)-c1cc2c(cc1OC3)N(CCCC(=O)NCCCCCNC(=O)c1cccc(OCC(N=[N+]=[N-])OCC(=O)NCC#Cc3cn([C@H]4CC(OCN=[N+]=[N-])[C@@H](COP(=O)(O)OP(=O)(O)OP(=O)(O)O)O4)c4ncnc(N)c34)c1)CCC2` (stereo partly shown) [ffA-sPA-LN3-I-4], the “Fluorescence em. λmax” value in data set [1] came out at 578 nm. The “UV-VIS λmax” value in data set [2] is recorded as 500 nm. Besides, the “fluorescence emission over time” value in data set [3] (setting [4]) and in data set [3] (setting [5]) was “decreased very slowly over time” each time.

On to `COc1cc2c(cc3c([n+]2C)-c2cc4c(cc2OC3)N(CCCC(=O)NCCCCCNC(=O)c2cccc(OCC(N=[N+]=[N-])OCC(=O)NCC#Cc3cn([C@H]5CC(OCN=[N+]=[N-])[C@@H](COP(=O)(O)OP(=O)(O)OP(=O)(O)O)O5)c5ncnc(N)c35)c2)CCC4)c(OC)c1OC` (stereo partly shown) [ffA-sPA-LN3-I-8], for which the “Fluorescence em. λmax” value in data set [1] was determined as 583 nm. In addition, the “UV-VIS λmax” value in data set [2] is reported as 500 nm.

As to `Cc1ccc2c(c1)cc1c([n+]2C)-c2cc3c(cc2OC1)N(CCCC(=O)NCCNC(=O)c1cccc(OCC(N=[N+]=[N-])OCCOCC(=O)NCC#Cc2cn([C@H]4CC(OCN=[N+]=[N-])[C@@H](COP(=O)(O)OP(=O)(O)OP(=O)(O)O)O4)c4ncnc(N)c24)c1)CCC3` (stereo partly shown) [ffA-LN3-I-2], the “Fluorescence em. λmax” value in data set [1] worked out at 582 nm. Besides, the “UV-VIS λmax” value in data set [2] stood at 500 nm.

In the case of `CCN(CC)c1ccc2c(c1)OCc1cc3cc(CC(=O)NCCNC(=O)c4cccc(OCC(N=[N+]=[N-])OCCOCC(=O)NCC#Cc5cn([C@H]6CC(OCN=[N+]=[N-])[C@@H](COP(=O)(O)OP(=O)(O)OP(=O)(O)O)O6)c6ncnc(N)c56)c4)ccc3[n+](C)c1-2` (stereo partly shown) [ffA-LN3-I-6], the “Fluorescence em. λmax” value in data set [1] was 574 nm. Further, the “UV-VIS λmax” value in data set [2] came to 495 nm.

On to `C=CCOCOC1C[C@H](n2cc(C#CCNC(=O)COC(COc3cccc(C(=O)NCCCCCNC(=O)CCCN4CCCc5cc6c(cc54)OCc4cc5cc(OC)c(OC)cc5[n+](C)c4-6)c3)OCC=C)c3c(N)ncnc32)O[C@@H]1COP(=O)(O)OP(=O)(O)OP(=O)(O)O` (stereo partly shown) [ffA-AOM-AOL-I-4], for which the “Fluorescence em. λmax” value in data set [1] is listed as 578 nm. Also, the “UV-VIS λmax” value in data set [2] is 500 nm.

For the compound `COc1ccc2c(c1)cc1c([n+]2C)-c2cc3c(cc2OC1)N(CCCC(=O)NCCNC(=O)c1cccc(OCC(N=[N+]=[N-])OCCOCC(=O)NCC#Cc2cn([C@H]4CC(OCN=[N+]=[N-])[C@@H](COP(=O)(O)OP(=O)(O)OP(=O)(O)O)O4)c4ncnc(N)c24)c1)CCC3` (stereo partly shown) [ffA-LN3-I-1], the “Fluorescence em. λmax” value in data set [1] is 590 nm. Also, the “UV-VIS λmax” value in data set [2] is 503 nm.

Take `Cc1cc2cc3c([n+](C)c2cc1C)-c1cc2c(cc1OC3)N(CCCC(=O)NCCCCCNC(=O)c1cccc(OCC(N=[N+]=[N-])OCC(=O)NCC#Cc3cn([C@H]4CC(OCN=[N+]=[N-])[C@@H](COP(=O)(O)OP(=O)(O)OP(=O)(O)O)O4)c4ncnc(N)c34)c1)CCC2` (stereo partly shown) [ffA-sPA-LN3-I-3]: the “Fluorescence em. λmax” value in data set [1] is listed as 578 nm. The “UV-VIS λmax” value in data set [2] is listed as 500 nm. Moreover, the “fluorescence emission over time” value in data set [3] (setting [4]) and in data set [3] (setting [5]) was “decreased very slowly over time” throughout.

For `COc1ccc2c(c1)cc1c([n+]2C)-c2cc3c(cc2OC1)N(CCCC(=O)NCCNC(=O)c1cccc(OCC(N=[N+]=[N-])OCCOCC(=O)NCC#Cc2cn([C@H]4CC(OCN=[N+]=[N-])[C@@H](COP(=O)(O)OP(=O)(O)OP(=O)(O)O)O4)c4ncnc(N)c24)c1)C(C)(C)CC3C` (stereo partly shown) [ffA-LN3-I-5], in data set [1], the “Fluorescence em. λmax” value turned out to be 585 nm. The “UV-VIS λmax” value in data set [2] is reported as 501 nm.

As for `C=CCOCOC1C[C@H](n2cc(/C=C/CNC(=O)COC(COc3cccc(C(=O)NCCCCCNC(=O)CCCN4CCCc5cc6c(cc54)OCc4cc5cc(OC)c(OC)cc5[n+](C)c4-6)c3)OCC=C)c3c(N)ncnc32)O[C@@H]1COP(=O)(O)OP(=O)(O)OP(=O)(O)O` (stereo partly shown) [ffA-(DB)-AOM-AOL-I-4], in data set [1], the “Fluorescence em. λmax” value is 578 nm. Also, the “UV-VIS λmax” value in data set [2] came to 500 nm.
